This series has as its target Rae1(31-368);Nup98(157-213) GLEBS (human;human, UniProt P78406;P52948 31-368;157-213, |). Nature of the series: EMSA. The settings on record: protein: recombinant;recombinant; tags: untagged;N-terminal His tag removed by TEV; copies: 1;1; label: 5' FAM; single strand. (Mobility shift assays separate free from complexed probe on a gel.)

Rae1(31-368);Nup98(157-213) GLEBS, sequence (P78406 31-368, chain 1 of 2): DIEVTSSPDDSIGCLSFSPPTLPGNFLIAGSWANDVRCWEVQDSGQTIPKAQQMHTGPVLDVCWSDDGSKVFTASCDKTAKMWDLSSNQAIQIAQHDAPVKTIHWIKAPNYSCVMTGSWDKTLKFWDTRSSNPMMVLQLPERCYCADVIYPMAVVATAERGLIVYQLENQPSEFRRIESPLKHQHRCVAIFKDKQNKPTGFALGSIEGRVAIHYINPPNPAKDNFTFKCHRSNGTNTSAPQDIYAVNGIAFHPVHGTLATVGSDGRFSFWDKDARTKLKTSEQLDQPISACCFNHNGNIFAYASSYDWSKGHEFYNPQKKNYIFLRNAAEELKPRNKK
Rae1(31-368);Nup98(157-213) GLEBS, sequence (P52948 157-213, chain 2 of 2): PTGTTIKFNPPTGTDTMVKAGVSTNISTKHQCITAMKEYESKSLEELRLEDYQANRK

On to UUUUUUUUUU (ssRNA) [10-mer poly(U) ssRNA], for which the binding result was “binds”.

These data come from publication PMC9376891.
